Experiments:
Details in all cases: protein: recombinant; hairpin, 8 bp stem, 9 nt loop
FUS-RRM [1] = target: T1, FUS-RRM (Homo sapiens, UniProt P35637 282-374); assay: ITC; average over three sequential sites; ITC: 10 mM HEPES pH 7.0, 20 mM Na2SO4 (+5 mM beta-mercaptoethanol for RRM-RanBP2 constructs), 298 K, 1 mM RNA into 100 uM protein. NMR: 20 mM Na phosphate pH 6.2, 25 mM NaCl, 5% D2O (RRM) or 25 mM Na2SO4, 5 mM beta-mercaptoethanol (TAF15-RRM-RanBP2), 298 K
FUS-RRM-RanBP2 = FUS-RRM-RanBP2 (Homo sapiens, UniProt P35637 282-454); assay: ITC; N = 0.7; 5 mM beta-mercaptoethanol; ITC: 10 mM HEPES pH 7.0, 20 mM Na2SO4 (+5 mM beta-mercaptoethanol for RRM-RanBP2 constructs), 298 K, 1 mM RNA into 100 uM protein. NMR: 20 mM Na phosphate pH 6.2, 25 mM NaCl, 5% D2O (RRM) or 25 mM Na2SO4, 5 mM beta-mercaptoethanol (TAF15-RRM-RanBP2), 298 K
FUS-RRM [2] = target: T1, FUS-RRM; assay: ITC; sequential site N1; ITC: 10 mM HEPES pH 7.0, 20 mM Na2SO4 (+5 mM beta-mercaptoethanol for RRM-RanBP2 constructs), 298 K, 1 mM RNA into 100 uM protein. NMR: 20 mM Na phosphate pH 6.2, 25 mM NaCl, 5% D2O (RRM) or 25 mM Na2SO4, 5 mM beta-mercaptoethanol (TAF15-RRM-RanBP2), 298 K
TAF15-RRM-RanBP2 = TAF15-RRM-RanBP2 (Homo sapiens, UniProt Q92804 231-388); assay: ITC; N = 0.8; 5 mM beta-mercaptoethanol; ITC: 10 mM HEPES pH 7.0, 20 mM Na2SO4 (+5 mM beta-mercaptoethanol for RRM-RanBP2 constructs), 298 K, 1 mM RNA into 100 uM protein. NMR: 20 mM Na phosphate pH 6.2, 25 mM NaCl, 5% D2O (RRM) or 25 mM Na2SO4, 5 mM beta-mercaptoethanol (TAF15-RRM-RanBP2), 298 K
FUS-RRM [3] = target: T1, FUS-RRM; assay: ITC; sequential site N2; ITC: 10 mM HEPES pH 7.0, 20 mM Na2SO4 (+5 mM beta-mercaptoethanol for RRM-RanBP2 constructs), 298 K, 1 mM RNA into 100 uM protein. NMR: 20 mM Na phosphate pH 6.2, 25 mM NaCl, 5% D2O (RRM) or 25 mM Na2SO4, 5 mM beta-mercaptoethanol (TAF15-RRM-RanBP2), 298 K
TAF15-RRM = TAF15-RRM (Homo sapiens, UniProt Q92804 231-323); assay: ITC; N = 0.72; ITC: 10 mM HEPES pH 7.0, 20 mM Na2SO4 (+5 mM beta-mercaptoethanol for RRM-RanBP2 constructs), 298 K, 1 mM RNA into 100 uM protein. NMR: 20 mM Na phosphate pH 6.2, 25 mM NaCl, 5% D2O (RRM) or 25 mM Na2SO4, 5 mM beta-mercaptoethanol (TAF15-RRM-RanBP2), 298 K
FUS-RRM [4] = target: T1, FUS-RRM; assay: ITC; sequential site N3; ITC: 10 mM HEPES pH 7.0, 20 mM Na2SO4 (+5 mM beta-mercaptoethanol for RRM-RanBP2 constructs), 298 K, 1 mM RNA into 100 uM protein. NMR: 20 mM Na phosphate pH 6.2, 25 mM NaCl, 5% D2O (RRM) or 25 mM Na2SO4, 5 mM beta-mercaptoethanol (TAF15-RRM-RanBP2), 298 K

T1 sequence (P35637 282-374): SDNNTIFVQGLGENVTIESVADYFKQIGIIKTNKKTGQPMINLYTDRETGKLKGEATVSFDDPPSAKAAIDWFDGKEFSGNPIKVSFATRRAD
Sequence of FUS-RRM-RanBP2 (P35637 282-454): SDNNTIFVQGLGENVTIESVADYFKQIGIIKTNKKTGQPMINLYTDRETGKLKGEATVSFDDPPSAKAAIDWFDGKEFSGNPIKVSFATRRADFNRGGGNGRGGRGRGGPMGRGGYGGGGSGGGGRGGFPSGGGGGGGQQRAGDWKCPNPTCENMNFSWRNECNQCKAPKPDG
Sequence of TAF15-RRM (Q92804 231-323): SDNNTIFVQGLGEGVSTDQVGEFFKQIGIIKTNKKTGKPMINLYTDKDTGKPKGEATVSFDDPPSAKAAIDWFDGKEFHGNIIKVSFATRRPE
Sequence of TAF15-RRM-RanBP2 (Q92804 231-388): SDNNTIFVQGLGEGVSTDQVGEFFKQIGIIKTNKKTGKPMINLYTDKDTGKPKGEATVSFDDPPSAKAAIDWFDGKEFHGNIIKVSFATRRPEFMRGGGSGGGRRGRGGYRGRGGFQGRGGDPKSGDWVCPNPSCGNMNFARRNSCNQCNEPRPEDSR

CGUAUCUUUAACUACUCAAGAUACG (structured_RNA) [SON stem-loop RNA]
Kd (FUS-RRM [1]): 11 µM | Kd (FUS-RRM-RanBP2): 8 ± 0.7 µM | Kd (FUS-RRM [2]): 10 ± 1 µM | Kd (TAF15-RRM-RanBP2): 6 ± 0.7 µM | Kd (FUS-RRM [3]): 13 ± 1.6 µM | Kd (TAF15-RRM): 10 ± 1 µM | Kd (FUS-RRM [4]): 12 ± 0.3 µM
